The series can be described thus: label from the status in PepcDB records.
For “MSKLIGMLLNDKQVYVGPFLRGKKGILLAVESLKGNTFDDKQWVVDRAQKKSEREMELKVPYEQSLKEIADKFQSYNFRGSGFVAFSTQNVTISGICKDVIDESVAMPPSVGPRMPIYPLGSPGIRKSMFYG”, the protein production result was “not failed”. Turning to “MSFPLIFERSRKGRRGLKLVKAVPKAEDLIPKEHLREVPPRLPEVDELTLVRHYTGLSRRQVGVDTTFYPLGSCTMKYNPKLHEEAARLFADLHPYQDPRTAQGALRLMWELGEYLKALTGMDAITLEPAAGAHGELTGILIIRAYHEDRGEGRTRRVVLVPDSAHGSNPATASMAGYQVREIPSGPEGEVDLEALKRELGPHVAALMLTNPNTLGLFERRILEISRLCKEAGVQLYYDGANLNAIMGWARPGDMGFDVVHLNLHKTFTVPHGGGGPGSGPVGVKAHLAPYLPVPLVERGEEGFYLDFDRPKSIGRVRSFYGNFLALVRAWAYIRTLGLEGLKKAAALAVLNARYLKELLKEKGYRVPYDGPSMHEFVAQPPEGFRALDLAKGLLELGFHPPTVYFPLIVKEALMVEPTETEAKETLEAFAEAMGALLKKPKEWLENAPYSTPVRRLDELRANKHPKLTYFDEG”, the protein production entry is “not failed”. The result for “MTSNGQQGKPNLPEKDNLPRELGTQRINSPIARMGMFGAKTTGDTSGYGRLRVYRHVPAAAQRPYSDPSDPRTAYFDEVADALERSLKEIGTPYDTAISRVVVDRGEITFHVQREHLLDVATRLRDDPALRFELCLGVTGVHYPEDEGNELHAVYALRSITHNYEIRLEVSCPDSDPHIPSIVSVYPTNDWHEREAWDFFGIIFDGHPALTR” reads “not failed”; that for “MGLFQIKPDIHYGANSLDILRTLEMEKVFLVTDENMVKLKVINKVTNILKSRGIEAKVYSDVKPDPTDEEIIKGMLELSAHDPDCIIALGGGSPIDACKSMIYFTNQIKRAMGQNKKPKFIAIPTTSGTGSEVTSYAVVTTKDKKIPLSDSEMLPDIAILNPEFIKTLSPSIIADTGMDVLTHAIEAYVSKSRNLFTNTFAIGAIKTVFADLVSNFENPQLEKERINLQIASCMAGVAFSNAGLGINHSIAHSLGARFHKPHGRLNAVIMSEVIQFNARNKNAAKYYREIVEALGFSPKEDVEGVEILAKAIKMRAAKMGIPNSLSELGIPKEQYFDEMEGIIDQIENDMCTGENPRRFSRIEMKQLLTDLY”, “not failed”; that for “MTKGISALSNIATLRSRELGPETFIPYVRHVDETTIALESRALMTMIALDGVSFETSDVRDLNGLHRSLNTLYRNIADERLALWTHVVRRRDNAYPEGRFANPFSDGLNARYRERMVNENLFRNDLYLTLVWHPGRDPAEKAAKLLSRLSKARRSDTELDGQALKHLRDHVADVAAGLQRFGPRQLTLHEHDGILFSEPSEVLHQIVGGRREPIPLTEGRISSAIYSDRVIFGRETIEIRHEADSRYAGMFGFKEYPATTRSGMLDAILTAPFELILTQSFAFTSKADARTIMGRKQNQMVSAGDKAASQIEELGEAMDDLESNRFVLGEHHLTLAVFAPSVKELTDHMAKARAYLTSGGAVVAREDLGLEAAWWAQLPGNFRYRARSGAITSRNFAALAPYHSYPAGKKDGNEWGPAVAMLKTASGSPFYFNFHHGDLGNSFVCGPSGTGKTVLLNFMLSQLEKHGPHMVFFDKDRGADLFVRAAGGTYLPLKNGVATGCAPLKALEFTAENKVFLTGWIAKLVRSGPGELSITELRDIALAVDGVADLPVERRSIGALRTFLNNTDPEGIAARLRRWEKGGPLGWVFDNEADDIGIGARFIGYDMTDFLDNEEIRTPLMAYLFYRIEQLIDGRRIIIVIDEFWKALQDEGFRDLAQNKLKTIRKQNGLMLFATQSPRDAIVSPIAHTIIEQCPTQIFLPNPRGDRADYVDGFKLTEREFELVSRELSVESRRFIVKQGHNSVVAELNLNGFDDELAILSGRTANVELADAIRLEIGEGREDWLAVFHQRRKTA”, “failed”. For “MTMEALQFLLAAPPGAYDPVARTIEDEPRPSQPPTSALALDIRGLRKSFGDNDVLRGIDLHIPAGQFVTIVGRSGCGKSTLLRLIAGLETPTAGHIVFGEDKLPGDVRVMFQEPRLLPWARVLANVEVGLGTERNSPDARARADAALIEVGLDDKRGEWPAVLSGGQKQRVALARALVSRPRVLAFDEPLGALDALTRIAMQRLLEQVWQAQGFTAILVTHDVAEAVALADRVLVIEDGRIAKDLPIDLPRPRQRGSAELAALEGEILRDLLKGAEDTFEL”, the protein production result is reported as “failed”. For the sequence “MNGYTISAIYAHIASGISLEKRKGFFEMLDEIINNKVEKVIITYKDRLSRVGFDLFSYLFRKYRTEIAVISEVGNTKLDSEEVFEEIVSMLHSYSMKMYSKRKNHYIEVGYEG”, the protein production entry is given as “failed”.

Source of the values: a protein production outcome set (Wang et al. 2014).
